In article PMC5856483:

Target: FITC-Dsn1 560-572 synthetic peptide (S. cerevisiae) (S. cerevisiae)
Assay: fluorescence polarisation

With “S. cerevisiae Spc24 155-213/Spc25 132-221 heterodimer (from UniProt Q04477 155-213; P40014 132-221) (complex)” the Kd was 12 µM.
